PMC7610489

Target: P4-FAM, N-terminally fluorescein-labelled P4 peptide (Streptococcus cristatus)
Test: MST

Substance	Kd
RagAB complex purified from wild-type P. gingivalis W83, 8xHis-tag on the C terminus of RagB	2000 nM
RagAB from P. gingivalis ATCC 33277 (complex)	200 nM
